Results: US20220275046A1 (published 2022)

Target: T1, MAGE-A2 peptide on HLA-DPA1*01:03 / HLA-DPB1*04:01 (human)
T1 peptide: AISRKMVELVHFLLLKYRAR
Experiment: multimer staining

- binding result: recognises
B1: 06-MAGE-A2108-127 TCR (TCR, V domains shown)
Valpha: QKVTQAQTEISVVEKEDVTLDCVYETRDTTYYLFWYKQPPSGELVFLIRRNSFDEQNEISGRYSWNFQKSTSSFNFTITASQVVDSAVYFCALSVGTYKYIFGTGTRLKVLA
Vbeta: DTGVSQNPRHKITKRGQNVTFRCDPISEHNRLYWYRQTLGQGPEFLTYFQNEAQLEKSRLLSDRFSAERPKGSFSTLEIQRTEQGDSAMYLCASSPGTGGRETQYFGPGTRLLVL
